In paper PMC12283967 (Nature Communications, 2025):
Like-named read-outs stand apart in the source and are kept apart here.

Key:
SEC [1] = target: the molecule itself; experiment: SEC
SEC [2] = target: the molecule itself; experiment: SEC; remark: listed apart in the source

Protein | stoichiometry N (SEC [1]) | stoichiometry N (SEC [2])
Sumo-His-tagged PFKM WT (enzyme, human, UniProt P08237 1-780, looked up) MTHEEHHAAKTLGIGKAIAVLTSGGDAQGMNAAVRAVVRVGIFTGARVFFVHEGYQGLVDGGDHIKEATWESVSMMLQLGGTVIGSARCKDFREREGRLRAAYNLVKRGITNLCVIGGDGSLTGADTFRSEWSDLLSDLQKAGKITDEEATKSSYLNIVGLVGSIDNDFCGTDMTIGTDSALHRIMEIVDAITTTAQSHQRTFVLEVMGRHCGYLALVTSLSCGADWVFIPECPPDDDWEEHLCRRLSETRTRGSRLNIIIVAEGAIDKNGKPITSEDIKNLVVKRLGYDTRVTVLGHVQRGGTPSAFDRILGSRMGVEAVMALLEGTPDTPACVVSLSGNQAVRLPLMECVQVTKDVTKAMDEKKFDEALKLRGRSFMNNWEVYKLLAHVRPPVSKSGSHTVAVMNVGAPAAGMNAAVRSTVRIGLIQGNRVLVVHDGFEGLAKGQIEEAGWSYVGGWTGQGGSKLGTKRTLPKKSFEQISANITKFNIQGLVIIGGFEAYTGGLELMEGRKQFDELCIPFVVIPATVSNNVPGSDFSVGADTALNTICTTCDRIKQSAAGTKRRVFIIETMGGYCGYLATMAGLAAGADAAYIFEEPFTIRDLQANVEHLVQKMKTTVKRGLVLRNEKCNENYTTDFIFNLYSEEGKGIFDSRKNVLGHMQQGGSPTPFDRNFATKMGAKAMNWMSGKIKESYRNGRIFANTPDSGCVLGMRKRALVFQPVAELKDQTDFEHRIPKEQWWLKLRPILKILAKYEIDLDTSDHAHLEHITRKRSGEAAV | 2 | 4
Sumo-His-tagged PFKM F639L (enzyme, human, UniProt P08237 1-780, looked up) MTHEEHHAAKTLGIGKAIAVLTSGGDAQGMNAAVRAVVRVGIFTGARVFFVHEGYQGLVDGGDHIKEATWESVSMMLQLGGTVIGSARCKDFREREGRLRAAYNLVKRGITNLCVIGGDGSLTGADTFRSEWSDLLSDLQKAGKITDEEATKSSYLNIVGLVGSIDNDFCGTDMTIGTDSALHRIMEIVDAITTTAQSHQRTFVLEVMGRHCGYLALVTSLSCGADWVFIPECPPDDDWEEHLCRRLSETRTRGSRLNIIIVAEGAIDKNGKPITSEDIKNLVVKRLGYDTRVTVLGHVQRGGTPSAFDRILGSRMGVEAVMALLEGTPDTPACVVSLSGNQAVRLPLMECVQVTKDVTKAMDEKKFDEALKLRGRSFMNNWEVYKLLAHVRPPVSKSGSHTVAVMNVGAPAAGMNAAVRSTVRIGLIQGNRVLVVHDGFEGLAKGQIEEAGWSYVGGWTGQGGSKLGTKRTLPKKSFEQISANITKFNIQGLVIIGGFEAYTGGLELMEGRKQFDELCIPFVVIPATVSNNVPGSDFSVGADTALNTICTTCDRIKQSAAGTKRRVFIIETMGGYCGYLATMAGLAAGADAAYIFEEPFTIRDLQANVEHLVQKMKTTVKRGLVLRNEKCNENYTTDLIFNLYSEEGKGIFDSRKNVLGHMQQGGSPTPFDRNFATKMGAKAMNWMSGKIKESYRNGRIFANTPDSGCVLGMRKRALVFQPVAELKDQTDFEHRIPKEQWWLKLRPILKILAKYEIDLDTSDHAHLEHITRKRSGEAAV |  | 2
